In patent publication KR20220167207A (dated 2022):
Read-outs that look alike come from different tables or passages of the source. Where no end group is shown, it is not given here.

T1: BSA-conjugated human CADM1 peptide (human, also: conjugated to BSA via added C-terminal Cys)
T1 construct: also called human peptide; rhCADM1 peptide
T1 peptide: DSRAGEEGSIRAVDHC(BSA)

T2: BSA-conjugated mouse CADM1 peptide (mouse, also: conjugated to BSA via added C-terminal Cys)
T2 construct: also called mouse peptide
T2 peptide: DSRAGEEGTIGAVDHC(BSA)

T3: CADM1 peptide expressed on SBC-5 small cell lung cancer cells (CADM1-SBC-5); peptide - transmembrane domain - … (human)
T3 construct: also called CADM1 펩타이드를 발현하는 SBC-5 세포
T3 sequence (Q9BY67 whole entry, looked up): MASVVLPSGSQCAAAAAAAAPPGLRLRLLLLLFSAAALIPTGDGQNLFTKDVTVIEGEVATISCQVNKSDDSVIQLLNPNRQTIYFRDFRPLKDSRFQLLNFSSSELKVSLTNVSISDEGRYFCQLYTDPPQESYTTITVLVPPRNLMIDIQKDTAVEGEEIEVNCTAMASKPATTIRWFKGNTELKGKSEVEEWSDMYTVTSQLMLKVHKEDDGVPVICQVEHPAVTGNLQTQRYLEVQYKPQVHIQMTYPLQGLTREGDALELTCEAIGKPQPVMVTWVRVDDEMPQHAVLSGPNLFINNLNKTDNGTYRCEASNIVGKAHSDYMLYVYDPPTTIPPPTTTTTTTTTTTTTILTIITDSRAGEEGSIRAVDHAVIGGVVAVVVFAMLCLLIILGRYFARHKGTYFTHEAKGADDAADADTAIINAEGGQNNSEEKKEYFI


Tests used:
[1] = target: T1, BSA-conjugated human CADM1 peptide; assay: ELISA, scFv titrated on coated BSA-conjugated human CADM1 peptide, anti-HA-HRP, OD450
[2] = target: T2, BSA-conjugated mouse CADM1 peptide; assay: ELISA, scFv titrated on coated BSA-conjugated mouse CADM1 peptide, anti-HA-HRP, OD450
[3] = target: T3, CADM1 peptide expressed on SBC-5 small …; assay: flow cytometry, 1 ug scFv on 5x10^5 SBC-5 cells expressing the CADM1 peptide, PE anti-HA
[4] = target: T4, comparison structure: the same structure without the CADM1 peptide (Myc tag, hinge, transmembrane domain, …); assay: flow cytometry, 1 ug scFv on 5x10^5 cells with the structure without the CADM1 peptide, PE anti-HA
T4 construct: also called 비교군 구조; CADM1 펩타이드를 포함하지 않는 세포

[5] = target: T1, BSA-conjugated human CADM1 peptide; assay: ELISA, scFv titrated on coated BSA-conjugated human CADM1 peptide, anti-HA-HRP, OD450
[6] = target: T2, BSA-conjugated mouse CADM1 peptide; assay: ELISA, scFv titrated on coated BSA-conjugated mouse CADM1 peptide, anti-HA-HRP, OD450

| Binder | Bmax [1] | Kd [1] | Bmax [2] | Kd [2] | 결합력 (%) [3] | 결합력 (%) [4] | Bmax [5] | Kd [5] | Bmax [6] | Kd [6] |
| --- | --- | --- | --- | --- | --- | --- | --- | --- | --- | --- |
| 4A2 (scFv, V domains shown, Tested as purified scFv with His tag and HA tag; chicken immune library) VH: AVTLDESGGGLQTPGRALSLACKGSGFTFSSYAMNWVRQAPGKGLEFVAQITSSGRYTYYGTAVKGRATISRDNGQSTVRLQLNNLRAEDSGTYYCAKDAAAGYYDGATAGDIDAWGHGTEVIVSS VL: LTQPSSVSANPGETVKITCSGGYNRYGWYQQKSPGSAPVTVIYSNNQRPSNIPSRFSGSKSGSTATLTITGVQAEDEAVYYCGSYDSSDGYAGIFGAGTTLTVL | 4.14 | 4.19 nM | 4.49 | 79.2 nM | 18.5% | 0.7% | – | – | – | – |
| 4A8 (scFv, V domains shown, Tested as purified scFv with His tag and HA tag; chicken immune library) VH: AVTLDESGGGLQTPGGGLSLVCKASGFTFSSYAMNWVRQAPGKGLEFVAQITSSGRYTYYGTAVKGRATISRDNGQSTVRLQLNNLRAEDSGTYYCAKDAAAGYYDGATAGDIDAWGHGTEVIVSS VL: LTQPSSVSANLGGTVKITCSGGSGSNHYGWYQQKSPGSAPVTVIYSNNKRPSNIPSRFSGSKFGSTATLTITGVQADDEAVYYCGGYDSSAGYIGPFGAGTTLTVL | 4.22 | 16.4 nM | 4.43 | 70.2 nM | 10.1% | 0.9% | – | – | – | – |
| 5RA5 (scFv, V domains shown, Tested as purified scFv (one chain) with His tag and HA tag, from pComb3X in E. coli; human synthetic library) VH: EVQLLESGGGLVQPGGSLRLSCAASGFTFSNYAMSWVRQAPGKGLEWVSWIYHGGGDTYYADSVKGRFTISRDNSKNTLYLQMNSLRAEDTAVYYCARAAVYCKRTNCYSYDAMDVWGQGTLVTVSS VL: QSVLTQPPSASGTPGQRVTISCSGSSSNIGNNSVTWYQQLPGTAPKLLIYSNNNRPSGVPDRFSGSKSGTSASLAISGLRSEDEADYYCGAWDDSLNAYVFGGGTKLTAL | – | – | – | – | – | – | 4.29 | 10.4 nM | 4.39 | 39.5 nM |
| 5RB6 (scFv, V domains shown, Tested as purified scFv with His tag and HA tag; human synthetic library; also called 5RB6(H); 5RB6 # Human specific) VH: EVQLLESGGGLVQPGGSLRLSCAASGFTFSDYAMSWVRQAPGKGLEWVSWIYYDSGSKYYADSVKGRFTISRDNSKNTLYLQMDSLRAEDTAVYYCAKHGRNTKNWPWYSANGMDVWGQGTLVTVSS VL: QSVLTQPPSASGTPGQRVTISCTGSSSNIGSNSVSWYQQLPGTAPKLLIYSDSKRPSGVPDRFSGSKSGTSASLAISGLRSEDEADYYCGAWDSSLSAYVFGGGTKLTVL | – | – | – | – | – | – | 4.25 | 11.9 nM | – | – |
| 5RA8 (scFv, V domains shown, Tested as purified scFv with His tag and HA tag; human synthetic library) VH: EVQLLESGGGLVQPGGSLRLSCAASGFTFSSYGMSWVRQAPGKGLEWVSGISYSGGSTYYADSVKGRFTISRDNSKNTLYLQMNSLRAEDTAVYYCARPISRLGAYMWSSSYAMDVWGQGTLVTVSS VL: QSVLTQPPSASGTPGQRVTISCSGSSSNIGSNYVTWYQQLPGTAPKLLIYANSNRPSGVPDRFSGSKSGTSASLAISGLRSEDEADYYCGSWDASLNGYVFGGGTKLTVL | – | – | – | – | – | – | 4.12 | 1.9 nM | 4.11 | 2 nM |
| 5RA7 (scFv, V domains shown, Tested as purified scFv with His tag and HA tag; human synthetic library) VH: EVQLLESGGGLVQTGGSLRLSCAASGFTFSDYAMSWVRQAPGRGLEWVSAIYPGNSSIYYADSVKGRFTISRDNSKNTLYLQMNSLRAEDTAVYYCARVPVQCMLTRCYSYDAMDVWGQGTLVTVSS VL: QSVLTQPPSASGTPGQRVTISCTGSSSNIGNNSVTWYQQLPGTAPKLLIYADSHRPSGVPDRFSGSKSGTSASLAISGLRSEDEADYYCGAWDSSLNAYVFGGGTKLTVL | – | – | – | – | – | – | 4.42 | 43.7 nM | 4.54 | 114 nM |
| 5RH12 (scFv, V domains shown, Tested as purified scFv with His tag and HA tag; human synthetic library) VH: EVQLLESGGGLVQPGGSLRLSCAASGFTFSNYAMSWVRQAPGKGLEWVSWIYHGGGDTYYADSVKGRFTISRDNSKNTLYLQMSSLRAEDTAVYYCARARVHCQQRRCSSYDAMDVWGQGTLVTVSS VL: QSVLTQPPSASGTPGQRVTISCSGSSSNIGSNSVSWYQQLPGTAPKLLIYADSHRPSGVPDRFSGSKSGTSASLAISGLRSEDEADYYCGAWDDSLSAYVFGGGTKLTVL | – | – | – | – | – | – | 5.07 | 271 nM | 6.13 | 666 nM |
| 5RG9 (scFv, V domains shown, Tested as purified scFv with His tag and HA tag; human synthetic library) VH: EVQLLESGGGLVQPGGSLRLSCAASGFTFSSYGMSWVRQAPGKGLEWVSWISYSGGNTYYADSVKGRFTISRDNSKNTLYLQMNSLRAEDTAVYYCARPISHFGAYMWSSSYAMDVWGQGTLVTVSS VL: QSVLTQPPSASGTPGQRVTISCSGSSSNIGSNYVTWYQQLPGTAPKLLIYANSNRPSGVPDRFSGSKSGTSASLAISGLRSEDGADYYCGAWDASLNGYVFGGGTKLTVL | – | – | – | – | – | – | 3.52 | 8.05 nM | 3.64 | 6.97 nM |
| 3C5 (scFv, V domains shown, Tested as purified scFv with His tag and HA tag; chicken immune library) VH: AVTLDESGGGLQTPGRALSLVCKGSGFTFSSVNMFWVRQAPGKGLEYVAGIRKDGGGPLYGAAVKGRATISRDNGQSTVRLQLNNLRAEDTGTYYCAKAAGSCWAGCTGFIDAWGHGTEVIVSS VL: LTQPSSVSANPGETVKITCSGGYNYYGWYQQKAPGSAPVTLIYANTDRPSDIPSRFSGSKFGSTATLTITGVQAEDEAVYFCGSRDSSYVGVFGAGTTLTVL | 4.41 | 49.7 nM | 4.05 | 41.7 nM | 1.1% | – | – | – | – | – |

More lines, now with the values ahead:

| Bmax [1] | Kd [1] | Bmax [2] | Kd [2] | 결합력 (%) [3] | 결합력 (%) [4] | Bmax [5] | Kd [5] | Bmax [6] | Kd [6] | Binder |
| --- | --- | --- | --- | --- | --- | --- | --- | --- | --- | --- |
| 4.48 | 52.7 nM | 5.57 | 394 nM | 3.3% | – | – | – | – | – | 4H7 (scFv, V domains shown, Tested as purified scFv with His tag and HA tag; chicken immune library) VH: AVTLDESGGGLQTPGGTLSLVCKASGFDFSSYEMAWVRQAPGKGLEYVAGIDNTGSATNYGAAVKGRATISRDNGQSTVRLQLNNLRAEDTATYFCAKDAYGYSGSDSWYAANPAYIDAWGHGTEVIVSS VL: LTQPSSVSANPGETVKITCSGSSGSYGWYQQKSPGSAPVTVIYDNTNRPSDIPSRFSGSKSGSTGTLTITGVQAEDEAVYFCGSRDSSYVGIFGAGTTLTVL |
| 4.38 | 47.9 nM | 4.32 | 59.2 nM | 1.2% | – | – | – | – | – | 5A2 (scFv, V domains shown, Tested as purified scFv with His tag and HA tag; chicken immune library) VH: AVTLDESGGGLQTPGGTLSLVCKGSGFDFSSVNMFWVRQAPGKGLEYVAGIRKDGGGPLYGAAVKGRATISRDNGQSTVRLQLNNLRAEDTGTYFCAKAAGSCWAGCTGFIDAWGHGTEVIVSS VL: LTQPSSVSANPGETVKITCSGGSSYYGWYQQKSPGSAPVTVIYYNDKRPSDIPSRFSGSKSGSTATLTITGVQAEDEAVYYCGSADSSYVGIFGAGTTLTVL |
| – | – | – | – | – | – | 4.19 | 4.23 nM | 4.19 | 4.8 nM | 6RC7 (scFv, V domains shown, Tested as purified scFv with His tag and HA tag; human synthetic library) VH: EVQLLESGGGLVQPGGSLRLSCAASGFTFSNYAMSWVRQAPGKGLEWVSGIYPNSGSNTYYADSVKGRFTISRDNSKNTLYLQMNSLRAEDTAVYYCARAIGPCLRYPCYSADAMDVWGQGTLVTVSS VL: QSVLTQPPSASGTPGQRVTISCTGSSSNIGSNYVNWYQQLPGTAPKLLIYANSNPPSGVPDRFSGSKSGTSASLGISGLRSEDEADYYCGAWDDNLNAYVFVGGTKLTVL |
| 4.47 | 66.5 nM | 2.06 | 476 nM | 2.3% | – | – | – | – | – | 4C8 (scFv, V domains shown, Tested as purified scFv with His tag and HA tag; chicken immune library) VH: AVTLDESGGGLQTPGRALSLVCKASGFSFSSYSMYWVRQAPGKGLEYVAEITSSGRYTYYGSAVKGRATISRDNGQSTVRLQLNNFRAEDTATYFCAKGSGTGYSDSGAGGEIDAWGHGTEVIVSS VL: LTQPSSVSANPGETVKITCSGGSGSYYGWYQQKSPGSAPVTVIYQNKQRPSNIPSRFSGSKSGSTGTLTITGVQAEDEAVYFCGNYESSAGIFGAGTTLTVL |
| 4.52 | 123 nM | 4.54 | 136 nM | – | – | – | – | – | – | 5A5 (scFv, V domains shown, Tested as purified scFv with His tag and HA tag; chicken immune library) VH: AVTLDESGGGLQTPGGGLSLVCKGSGFTFSSVNMFWVRQAPGKGLEYVAGIRKDGGGPLYGAAVKGRATISRDNGQSTVRLQLNNLRAEDTGTYYCAKAAGSCWAGCTGFIDAWGHGTEVIVSS VL: LTQPSSVSANLGGTVKITCSGSSGYGYGWYQQKSPGSAPVTVIYYNNKRPSDIPSRFSGSKSGSTATLTITGVQVEDEAVYYCGSADSSAGYVGIFGAGTTLTVL |
| 1.91 | 2.77 nM | 1.62 | 0.926 nM | – | – | – | – | – | – | 3G10 (scFv, V domains shown, Tested as purified scFv with His tag and HA tag; chicken immune library) VH: AVTLDESGGGLQTPGGGLSLVCKGSGFTFSSVNMFWVRQAPGKGLEYVAGIRKDGGGPLYGAAVKGRATISRDNGQSTVRLQLNNLRAEDTGTYYCAKAAGSCWAGCTGFIDAWGHGTEVIVSS VL: LTQPSSVSANPGETVKITCSGSTGSYGWFQQKSPGSALVTLIYNGNNRPSDIPSRFSGSKSGSTGTLTITGVQADDEAVYFCGGRESRSNPGIFGAGTTLTVL |
